According to publication PMC8632722:

Biological target: His-TF-LqqP (Lysobacter enzymogenes OH11)
Experiment: MST

PcoI-His (enzyme)
Kd: 646 nM
